Data taken from the nanobody polyreactivity screen of Harvey et al. (2022).

Test: yeast display, Sf9 membrane polyspecificity reagent, FACS + sequencing; frameworks hold sequencing errors
Procedure, shortened: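 Nanobodies from a synthetic yeast display library (Saccharomyces cerevisiae BJ5465), induced 36–48 hours with galactose, were stained 1 hour at 4 °C with 10% biotinylated, detergent-solubilized Sf9 membrane reagent, enriched on streptavidin microbeads, then FACS-sorted. Anti-HA (expression) and streptavidin (reagent binding) fluorescence set low and high (top ~1%) gates. Polyreactivity labels come from the gate of origin. Genes were colony-PCR amplified, MiSeq 2 × 250 sequenced and filtered by CDR length.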

Sequence | polyreactivity (PSR sort gate)
QVQLVESGGGLVQAGGSLRLSCAASGFIFSRYAMGWYRQAPGKERELVASISWGGGSTSYADSVKGRFTISRDNAKNTVYLQMNSLKPEDTAVYYCNARVRSHRFNYWGQGTQVTVSS | high polyreactivity
QVQLVESGGGLVQAGGSLRLSCAASGFIFSRYVMGWYRQAPGKERELVAAISSSGGRTYYADSVKGRFTISRDNAKNTVYLQMNCLKPEDTAVYYCAAKPLPGGADTTSPRYDYWGQGTQVTVSS | high polyreactivity
QVQLVESGGGLVQAGGSLRLSCAASGFIFSSIAMGWYRPAPGKEREFVAAITSGGITYYADSLKGRFTISRDNAKNTVYLQMNSLKPEDTAVYYCAAVLSYQTPKYYRWRYGYWGQGTQVTVSS | low polyreactivity
QVQLVESGGGLVQAGGSLRLSCAASGFIFSSNAMGWYRQAPGKEREFVAAISFRGGTTYYADSVKGRFTISRDNAKNTVYLQMKSLKPEDTAVYYCNAVRWRSGRWWWYDYWGQGTQVTVSS | low polyreactivity
QVQLVESGGGLVQAGGSLRLSCAASGFIFSSNAMGWYRQAPGKERELVARITWSDGSTYYADSVKGRFTISRDNAKNTVYLQMNSLKPEDTAVYYCAKGRDATHYEYYLYSMDYWGQGTQVTVSS | low polyreactivity
QVQLVESGGGLVQAGGSLRLSCAASGFIFSSYALGSYRQAPGKERELVAAIDLSGDSTYYADSVKGLFTISRDNAKNTVYLQMNSVKPEDTAVYYCAAQYYDYWYDSDYWGQGTQVTVSS | high polyreactivity
QVQLVESGGGLVQAGGSLRLSCAASGFIFSSYAMGWYRQAPGKERELVAAISRSGGRTNYADSVKGRFTISRDNAKNTVYLQMNSLKPEDTAVYYCAAGRWWVYRYARYYYWGQGTQVTVSS | high polyreactivity
QVQLVESGGGLVQAGGSLRLSCAASGFIFSSYAMGWYRQAPGKERELVAAISRSGGRTYYADSVKGRFTISRDNAKNTVYLQMNSLKPEDTAVYYCAAKRWWQYYWGQGTQVTVSS | high polyreactivity
QVQLVESGGGLVQAGGSLRLSCAASGFIFSSYAMGWYRQAPGKERELVAVITRSGRRTYYADSVKGRFTISRDNAKNTVYLQMNSLKPEDTAVYYCNATLPNEVAPNDYWGQGTQVTVSS | high polyreactivity
QVQLVESGGGLVQAGGSLRLSCAASGFIFSSYGMGWYRQAPGKERELVADISGGGSTNYADSVKGRFTISRDNAKNTVYLQMNSLKPEDTAVYYCNAQLIRSAAYDYWGQGTQVTVSS | low polyreactivity
QVQLVESGGGLVQAGGSLRLSCAASGFIFSTYAMGWYRQAPGKERELVAAITNSGGSTYYADSVKGRFTISRDNAKNTVYLQMNSLKPEDTAVYYCARRRSYRDNYWGQGTQVTVSS | high polyreactivity
QVQLVESGGGLVQAGGSLRLSCAASGFIFSWYDMGWYRQAPGKERELVAAISYSGSNTYYADSVKGRFTISRDNAKNTVYLQMNSLKPEDTAVYYCAATLGSRWAIYDYWGQGTQVTVSS | high polyreactivity
QVQLVESGGGLVQAGGSLRLSCAASGFIFSYNAMGWYRQAPGKERELVATITRRGGGTTYADSVKGRFTISRDNAKNTVYLQMNSLKPEDTAGYYCNRDDNRKHSFGSVGYDYWGQGTQVTVSS | low polyreactivity
QVQLVESGGGLVQAGGSLRLSCAASGFIFSYYAMGWYRPAPGKEREFVAAISRRGGSTYYADSVKGRFTISRDNAKNTVYLQMNSLKPEDTAVFYCARRRTSTAVREHYYRDWYGYDFWGQGTQVTVSS | high polyreactivity
QVQLVESGGGLVQAGGSLRLSCAASGFIFSYYAMGWYRQAPGKERELVAAINWSGGSTYYADSVKGRFTISRDNAKNTVYLQMNSLKPEDTAVYYCAAYSSWHPYDYWGQGTQVTVSS | high polyreactivity
QVQLVESGGGLVQAGGSLRLSCAASGFIFSYYAMGWYRQAPGKERELVAAISGRGGSTYYADSVKGRFTISRDNAKNTVYLQMNSLQPEDTAVYYCAADSPWGGGYFVLYNYWGQGTQVTVSS | low polyreactivity
QVQLVESGGGLVQAGGSLRLSCAASGFIFSYYAMGWYRQAPGKERELVAAISGSGGSTYYADSVKGRFTISRDNAKNTVYLQMNSLKPEDTAVYYCAAVSSYSRVYYWGQGTQVTVSS | high polyreactivity
QVQLVESGGGLVQAGGSLRLSCAASGFIFSYYAMGWYRQAPGKERELVAAITVTGGNTYYADSVKGRFTISRDNAKNTVYLQMNSLKPEDTAVYYCAAVVRGPGVSVYYWGQGTQVSVSS | low polyreactivity
QVQLVESGGGLVQAGGSLRLSCAASGFIFSYYAMGWYRQAPVKERELVAAISSSGGTTYADSVKGRFTISRDNAKNTFYLQMNSLKPEDTAVYYCARVQYWFYKPMYYWGQGTQVTVSS | high polyreactivity
QVQLVESGGGLVQAGGSLRLSCAASGFIFSYYTMGWYRQAPGKEWEVVAAIRSSGGSTYADSVKGRFTISRDNAKNTVYLQKNSLKPEDTAVYYCAAVQTWRWVYARDYWGQGTQVTVSS | high polyreactivity

Sequence | polyreactivity (PSR sort gate)
QVQLVESGGGLVQAGGSLRLSCAASGFIFSYYVMGWYRQAPGKERELVAGISWNGGRTYYADSVKGRFTISRDNAKNTVYFQMNSLKPEDTAVYYCAKDPYSKRRASSGYDYWGQGTQVTVSS | low polyreactivity
QVQLVESGGGLVQAGGSLRLSCAASGFIFSYYVMGWYRQAPGKERELVASISARVGSTYYADSVKGRFTISRDNAKNTVYLQMNSLKPEDTAVYYCNTARVKYRWYNYWGQGTQVTVSS | high polyreactivity
QVQLVESGGGLVQAGGSLRLSCAASGFIFTDNAMGWYRQAPGKDREFVAAITYSGGSTYYADSVKGRFTISRDNAKNTVYFQMNSLKPVDTAVYYCNKDVFPAPGGVTAYEYEYWGQGTQVTVSS | low polyreactivity
QVQLVESGGGLVQAGGSLRLSCAASGFIFTDYAMGWYRQAPGKEREFVAAIDWSGGNTYYADSVKGRFTISRDNAKNTVYLLMNSLKPEDTAVYYCADSGSAREYDYWGQGTQVTVSS | low polyreactivity
QVQLVESGGGLVQAGGSLRLSCAASGFIFTGNAMGWYRQAPGKERELVAAITQSGGHTSYADSVKGRFTISRDNAKNTVYLQMNSLKPEDTAVYYCNAEYTWPYHGVRNGWFNFKYEYWGQGTQVTVSS | low polyreactivity
QVQLVESGGGLVQAGGSLRLSCAASGFIFTGYAMGWYRPAPRKERELVAAITKSGGSTYYADSVKGRFTISRDNAKNTVYLQMNSLKPEDTAVYYFNTYVWRWSKGGYWGHGTQVTVSS | high polyreactivity
QVQLVESGGGLVQAGGSLRLSCAASGFIFTGYAMGWYRQAPGKERELVAAISRRGGSTYYADSVKGRFTISRDNAKNTVYLQMNSLKPEDTAVYYCAARTRTNGFDDWGQGTQVTVSS | high polyreactivity
QVQLVESGGGLVQAGGSLRLSCAASGFIFTKYTKGWYRPAPGTERELVAAIRSDGVRTYYADSVKGRFTISRDNAKNTVYLQMNSLKPEDTAVYYCAAYKAVPHYYYWGQGTQVTVSS | high polyreactivity
QVQLVESGGGLVQAGGSLRLSCAASGFIFTKYTMGWYRQAAGKVRELVAAIDSGGNTYADSVKGRFTISRDNAKNTVYLHMNSLKPEDTAVYYCAVDGGEFSSYGYWGQGTQVTVSS | low polyreactivity
QVQLVESGGGLVQAGGSLRLSCAASGFIFTKYTMGWYRQAPGKERELVAAITGRGTSTYADSVKGRFTISRDNAKNTVYLQMNSLKPEDTAVYYCAAVGWFADFLFSDINGYYWGQGTQVTVSS | low polyreactivity
QVQLVESGGGLVQAGGSLRLSCAASGFIFTLYTMGWYRPAPGKERELVAAISGRGGYTYYADSVKGRFTISRDNAKNTVYLHMNSLKPEDTAVYYCARAAYGFRARSGGDYWGQGTQVTVSS | high polyreactivity
QVQLVESGGGLVQAGGSLRLSCAASGFIFTNYAIGWYRQAPGKVRELVATISSGGGSTYYADSVKGRFTISRDNAKNTVYLQMNSLKQEDTAVYYCAASRRITGIRYINRYEYWGQGTQVTVSS | high polyreactivity
QVQLVESGGGLVQAGGSLRLSCAASGFIFTNYAMGWYRQAPGKERELVAAITRRGGGTYYADSVKGRFTISRDNAKNTVYLQMNSLKPEDTAVYYCAKYSRLVTANDYDYWGQGTQVTVSS | high polyreactivity
QVQLVESGGGLVQAGGSLRLSCAASGFIFTPYTMGWYRQAPGKERELVAAITDGSSTYYADSVKGRFTISRDNAKNTVYLQMNSLKPEDTAVYYCNADGKPPYISWLYDYWGQGTQVTVSS | low polyreactivity
QVQLVESGGGLVQAGGSLRLSCAASGFIFTRYAMGWYRQAPGKERELVARISGGGGSTYYADSVKGRFTISRDNAKNTVYLQMNSLKPEDTAVYYCNARWYPYISRYGIEARYDYWGQGTQVTVSS | high polyreactivity
QVQLVESGGGLVQAGGSLRLSCAASGFIFTTYAMGWYRQAPGKERELVAAISSSGTTYYADSVKGRFTISRDNAKNTVYLQMNSLKPEDTAVYYCAARRQFRSYQQRLYYWGQGTQVTVSS | low polyreactivity
QVQLVESGGGLVQAGGSLRLSCAASGFIFTTYAMGWYRQAPGKERELVAAISYRTGRTFYADSVKGRFTISRDNAKNTVYLQMNSLKPEDTAVYYCAAGTIQTVTTYWWTYRIGLGYWGQGTKVTVSS | high polyreactivity
QVQLVESGGGLVQAGGSLRLSCAASGFIFTTYAMGWYRQEPGTERELVAAISGRGGTTYYADSVKGRFTISRDNAKNTVYLQMNSMKPEDTAVYYCAADGYPGDDYWGQGTQVTVSS | high polyreactivity
QVQLVESGGGLVQAGGSLRLSCAASGFIFTVYALGWYRQAPVKERELVATITGTGDTNYADSVKGRFTISRDNAKNTVYLQMNSLKPEDTAVYYCAVSPRVPFRKPVLTPYNMYYWGQGTQVTVSS | high polyreactivity
QVQLVESGGGLVQAGGSLRLSCAASGFIFTYYALGWYRQAPGKERELVAAITIGGTTNYADSVKGRFTISRDNAKNTVYLQMNSLKPEDTAVYYCAAYFTIEDWYYNEAVRYYYWGQGTKVTVSS | high polyreactivity
